Experimental data: US20250145711A1 (Janssen / Centocor, published 2025)
Positions count from the first letter of the chain named. Names and notes keep the numbering of the source.

B1: BC3B123 (bispecific antibody, human IgG1, kappa, L234A L235A)
chain: EIVLTQSPATLSASPGERVTLSCSASSSVSYMNWYQQKPGQAPRRLIYDSSKLASGVPARFSGSGSGRDYTLTISSLEPEDFAVYYCQQWSRNPPTFGGGTKVEIKGGSEGKSSGSGSESKSTGGSQVQLVQSGAEVKKPGSSVKVSCKASGYTFTRSTMHWVKQAPGQGLEWMGYINPSSAYTNYNQKFQGRVTLTADKSTSTAYMELSSLRSEDTAVYYCASPQVHYDYQGFPYWGQGTLVTVSSEPKSSDKTHTCPPCPAPEAAGGPSVFLFPPKPKDTLMISRTPEVTCVVVSVSHEDPEVKFNWYVDGVEVHNAKTKPREEQYNSTYRVVSVLTVLHQDWLNGKEYKCKVSNKALPAPIEKTISKAKGQPREPQVYVYPPSREEMTKNQVSLTCLVKGFYPSDIAVEWESNGQPENNYKTTPPVLDSDGSFALVSKLTVDKSRWQQGNVFSCSVMHEALHNHYTQKSLSLSPG
heavy: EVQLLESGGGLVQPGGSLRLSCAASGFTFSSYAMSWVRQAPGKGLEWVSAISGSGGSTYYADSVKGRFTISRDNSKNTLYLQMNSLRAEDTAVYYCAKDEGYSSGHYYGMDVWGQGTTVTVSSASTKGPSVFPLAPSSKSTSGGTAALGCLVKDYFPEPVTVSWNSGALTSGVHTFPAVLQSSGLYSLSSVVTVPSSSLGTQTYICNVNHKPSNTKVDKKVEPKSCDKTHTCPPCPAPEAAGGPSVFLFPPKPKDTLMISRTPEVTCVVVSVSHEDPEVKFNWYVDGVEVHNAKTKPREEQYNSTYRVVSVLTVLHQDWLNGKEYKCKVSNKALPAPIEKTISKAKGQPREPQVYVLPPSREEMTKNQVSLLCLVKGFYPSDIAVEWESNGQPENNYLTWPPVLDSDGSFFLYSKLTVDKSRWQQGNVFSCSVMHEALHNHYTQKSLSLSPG
light: EIVLTQSPGTLSLSPGERATLSCRASQSISSSFLTWYQQKPGQAPRLLIYGASSRATGIPDRFSGGGSGTDFTLTISRLEPEDFAVYYCQHYGSSPMYTFGQGTKLEIKRTVAAPSVFIFPPSDEQLKSGTASVVCLLNNFYPREAKVQWKVDNALQSGNSQESVTEQDSKDSTYSLSSTLTLSKADYEKHKVYACEVTHQGLSSPVTKSFNRGEC
notes: IgG1 BCMAxCD3; HC1: CD3B2051-N106Q LH scFv-Fc; also called BC3B123.001; B2051 LH NtoQ
B2: BC3B128 (bispecific antibody, human IgG1, kappa, L234A L235A)
chain: B1 chain with L46W, K164R, N187A
heavy: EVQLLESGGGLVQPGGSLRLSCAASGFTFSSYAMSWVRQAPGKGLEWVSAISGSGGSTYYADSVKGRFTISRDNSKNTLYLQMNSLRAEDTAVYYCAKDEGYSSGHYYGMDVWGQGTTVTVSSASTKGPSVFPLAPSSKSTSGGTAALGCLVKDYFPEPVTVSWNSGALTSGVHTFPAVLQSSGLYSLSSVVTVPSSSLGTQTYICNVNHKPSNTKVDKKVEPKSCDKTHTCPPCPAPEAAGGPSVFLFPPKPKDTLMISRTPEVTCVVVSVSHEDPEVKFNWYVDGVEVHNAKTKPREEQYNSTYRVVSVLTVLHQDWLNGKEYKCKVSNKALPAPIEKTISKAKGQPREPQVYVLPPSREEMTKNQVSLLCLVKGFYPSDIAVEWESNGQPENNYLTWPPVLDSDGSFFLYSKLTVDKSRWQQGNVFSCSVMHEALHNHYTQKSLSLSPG
light: B1 light
notes: IgG1 BCMAxCD3; HC1: CD3B2089-N106Q LH scFv-Fc; also called BC3B128.001; B2089 LH NtoQ
B3: BC3B127 (bispecific antibody, human IgG1, kappa, L234A L235A)
chain: B1 chain with L46W, K164R, N187A, Q232G
heavy: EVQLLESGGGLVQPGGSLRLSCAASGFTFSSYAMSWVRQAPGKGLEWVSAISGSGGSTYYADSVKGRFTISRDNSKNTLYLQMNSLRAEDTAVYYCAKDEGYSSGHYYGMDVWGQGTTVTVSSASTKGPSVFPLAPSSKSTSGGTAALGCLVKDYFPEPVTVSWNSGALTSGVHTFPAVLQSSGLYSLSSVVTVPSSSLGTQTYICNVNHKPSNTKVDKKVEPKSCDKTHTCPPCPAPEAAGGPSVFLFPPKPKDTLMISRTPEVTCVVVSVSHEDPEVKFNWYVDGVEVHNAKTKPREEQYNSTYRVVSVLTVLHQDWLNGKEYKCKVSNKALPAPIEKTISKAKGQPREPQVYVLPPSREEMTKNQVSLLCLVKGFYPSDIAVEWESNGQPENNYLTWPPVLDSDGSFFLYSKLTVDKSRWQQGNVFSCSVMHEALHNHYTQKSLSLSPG
light: B1 light
notes: IgG1 BCMAxCD3; HC1: CD3B2089-N106G LH scFv-Fc; also called BC3B127.001; B2089 LH NtoG
B4: BC3B126 (bispecific antibody, human IgG1, kappa, L234A L235A)
chain: B1 chain with L46W, K164R, N187A, Q232A
heavy: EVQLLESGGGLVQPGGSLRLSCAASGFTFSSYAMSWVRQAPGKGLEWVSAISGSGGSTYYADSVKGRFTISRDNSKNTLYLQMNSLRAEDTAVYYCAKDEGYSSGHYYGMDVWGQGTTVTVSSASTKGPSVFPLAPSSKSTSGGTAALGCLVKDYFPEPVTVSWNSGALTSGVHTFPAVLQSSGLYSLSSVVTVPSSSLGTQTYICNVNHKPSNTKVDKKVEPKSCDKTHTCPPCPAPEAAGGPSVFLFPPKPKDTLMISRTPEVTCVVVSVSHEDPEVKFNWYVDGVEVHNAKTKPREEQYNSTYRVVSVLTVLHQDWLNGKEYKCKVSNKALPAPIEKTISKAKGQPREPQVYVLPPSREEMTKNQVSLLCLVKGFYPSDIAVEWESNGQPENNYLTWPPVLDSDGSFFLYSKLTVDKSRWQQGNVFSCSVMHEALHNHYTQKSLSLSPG
light: B1 light
notes: IgG1 BCMAxCD3; HC1: CD3B2089-N106A LH scFv-Fc; also called BC3B126.001; B2089 LH NtoA
B5: PS3B931 (bispecific antibody, human IgG1, kappa, lambda, L234A L235A)
heavy 1: EVQLVESGGGLVKPGGSLRLSCAASGFTFSRYNMNWVRQAPGKGLEWVSSISTSSNYIYYADSVKGRFTFSRDNAKNSLDLQMSGLRAEDTAIYYCTRGWGPFDYWGQGTLVTVSSASTKGPSVFPLAPSSKSTSGGTAALGCLVKDYFPEPVTVSWNSGALTSGVHTFPAVLQSSGLYSLSSVVTVPSSSLGTQTYICNVNHKPSNTKVDKKVEPKSCDKTHTCPPCPAPEAAGGPSVFLFPPKPKDTLMISRTPEVTCVVVSVSHEDPEVKFNWYVDGVEVHNAKTKPREEQYNSTYRVVSVLTVLHQDWLNGKEYKCKVSNKALPAPIEKTISKAKGQPREPQVYTLPPSREEMTKNQVSLTCLVKGFYPSDIAVEWESNGQPENNYKTTPPVLDSDGSFLLYSKLTVDKSRWQQGNVFSCSVMHEALHNHYTQKSLSLSP
light 1: DIQMTQSPSSLSASVGDRVTITCRARQSIGTAIHWYQQKPGKAPKLLIKYASESISGVPSRFSGSGSGTDFTLTISSLQPEDFATYYCQQSGSWPYTFGQGTKLEIKRTVAAPSVFIFPPSDEQLKSGTASVVCLLNNFYPREAKVQWKVDNALQSGNSQESVTEQDSKDSTYSLSSTLTLSKADYEKHKVYACEVTHQGLSSPVTKSFNRGEC
heavy 2: EVQLVESGGGLVKPGGSLRLSCAASGFTFSRYNMNWVRQAPGKGLEWVSSINSNSRYIYYADSVKGRFTISRDSAKNSLYLQMNSLRAEDTAVYYCAKTMGDYYYYYGMDVWGQGTTVTVSSASTKGPSVFPLAPSSKSTSGGTAALGCLVKDYFPEPVTVSWNSGALTSGVHTFPAVLQSSGLYSLSSVVTVPSSSLGTQTYICNVNHKPSNTKVDKKVEPKSCDKTHTCPPCPAPEAAGGPSVFLFPPKPKDTLMISRTPEVTCVVVSVSHEDPEVKFNWYVDGVEVHNAKTKPREEQYNSTYRVVSVLTVLHQDWLNGKEYKCKVSNKALPAPIEKTISKAKGQPREPQVYTLPPSREEMTKNQVSLTCLVKGFYPSDIAVEWESNGQPENNYKTTPPVLDSDGSFFLYSRLTVDKSRWQQGNVFSCSVMHEALHNHYTQKSLSLSPG
light 2: SSELTQPPSVSGAPGQRVTISCAGSLSNIGAGYDVHWYQQLPGTAPKLLIYGNINRLSGVPERFSGSKSGTSASLAITGLQAEDGADYYCQSYDSSLSSYVFGTGTKVTVLGQPKAAPSVTLFPPSSEELQANKATLVCLISDFYPGAVTVAWKADSSPVKAGVETTTPSKQSNNKYAASSYLSLTPEQWKSHRSYSCQVTHEGSTVEKTVAPTECS
notes: FAB-A: CD3B2183 (CD3W245); FAB-B: PSMB890
B6: PS3B913 (bispecific antibody, human IgG1, lambda, L234A L235A)
heavy 1: QVQLQQSGPRLVRPSQTLSLTCAISGDSVFNNNAAWSWIRQSPSRGLEWLGRTYYRSKWLYDYAVSVKSRITVNPDTSRNQFTLQLNSVTPEDTALYYCARGYSSSFDYWGQGTLVTVSSASTKGPSVFPLAPSSKSTSGGTAALGCLVKDYFPEPVTVSWNSGALTSGVHTFPAVLQSSGLYSLSSVVTVPSSSLGTQTYICNVNHKPSNTKVDKKVEPKSCDKTHTCPPCPAPEAAGGPSVFLFPPKPKDTLMISRTPEVTCVVVSVSHEDPEVKFNWYVDGVEVHNAKTKPREEQYNSTYRVVSVLTVLHQDWLNGKEYKCKVSNKALPAPIEKTISKAKGQPREPQVYTLPPSREEMTKNQVSLTCLVKGFYPSDIAVEWESNGQPENNYKTTPPVLDSDGSFLLYSKLTVDKSRWQQGNVFSCSVMHEALHNHYTQKSLSLSPG
light 1: QSALTQPASVSGSPGQSITISCTGTSSNIGTYKFVSWYQQHPDKAPKVLLYEVSKRPSGVSSRFSGSKSGNTASLTISGLQAEDQADYHCVSYAGSGTLLFGGGTKLTVLGQPKAAPSVTLFPPSSEELQANKATLVCLISDFYPGAVTVAWKADSSPVKAGVETTTPSKQSNNKYAASSYLSLTPEQWKSHRSYSCQVTHEGSTVEKTVAPTECS
heavy 2: not shown
light 2: not shown
notes: FAB-A: CD3B891 (CD3B376 - K477); FAB-B: PSMB891
B7: PS3B915 (bispecific antibody, human IgG1, lambda, L234A L235A)
heavy 1: B6 heavy 1
light 1: B6 light 1
heavy 2: not shown
light 2: not shown
notes: FAB-A: CD3B891 (CD3B376 - K477); FAB-B: PSMB892
B8: PS3B919 (bispecific antibody, human IgG1, lambda, L234A L235A)
heavy 1: B6 heavy 1
light 1: B6 light 1
heavy 2: EVQLVESGGGLVQPGGSLRLSCAASGFTFSSYAMSWVRQAPGKGLEWVSAISGGIGSTYYADSVKGRFTISRDNSKNTLWLQMNSLRAEDTAVYYCAKDGVGATPYYFDYWGQGTLVTVSSASTKGPSVFPLAPSSKSTSGGTAALGCLVKDYFPEPVTVSWNSGALTSGVHTFPAVLQSSGLYSLSSVVTVPSSSLGTQTYICNVNHKPSNTKVDKKVEPKSCDKTHTCPPCPAPEAAGGPSVFLFPPKPKDTLMISRTPEVTCVVVSVSHEDPEVKFNWYVDGVEVHNAKTKPREEQYNSTYRVVSVLTVLHQDWLNGKEYKCKVSNKALPAPIEKTISKAKGQPREPQVYTLPPSREEMTKNQVSLTCLVKGFYPSDIAVEWESNGQPENNYKTTPPVLDSDGSFFLYSRLTVDKSRWQQGNVFSCSVMHEALHNHYTQKSLSLSPG
light 2: QSVLTQPPSVSAAPGQKVTISCSGSSSNIGNNYVSWYQQLPGTAPKLLIYDNNKRPSGIPDRFSGSKSGTSATLGITGLQTGDEADYYCGTWDSSLSAYVFGTGTKVTVLGQPKAAPSVTLFPPSSEELQANKATLVCLISDFYPGAVTVAWKADSSPVKAGVETTTPSKQSNNKYAASSYLSLTPEQWKSHRSYSCQVTHEGSTVEKTVAPTECS
notes: FAB-A: CD3B891 (CD3B376 - K477); FAB-B: PSMB895
B9: PS3B912 (bispecific antibody, human IgG1, lambda, L234A L235A)
heavy 1: B6 heavy 1
light 1: B6 light 1
heavy 2: B8 heavy 2 with A23T, T28I, I55Y, S57A, T58P, S63T, W80Y, Y110D, T115I
light 2: B8 light 2 with Y50F
notes: FAB-A: CD3B891 (CD3B376 - K477); FAB-B: PSMB899
B10: PS3B920 (bispecific antibody, human IgG1, lambda, L234A L235A)
heavy 1: B6 heavy 1
light 1: B6 light 1
heavy 2: B8 heavy 2 with I55S, W80Y, T91S
light 2: B8 light 2
notes: FAB-A: CD3B891 (CD3B376 - K477); FAB-B: PSMB897
B11: PS3B922 (bispecific antibody, human IgG1, lambda, L234A L235A)
heavy 1: B6 heavy 1
light 1: B6 light 1
heavy 2: B8 heavy 2 with I55S, W80Y, T91S
light 2: B8 light 2 with N31I, Y99V, T103G, V107L
notes: FAB-A: CD3B891 (CD3B376 - K477); FAB-B: PSMB898
B12: PS3B921 (bispecific antibody, human IgG1, lambda, L234A L235A)
heavy 1: B6 heavy 1
light 1: B6 light 1
heavy 2: B8 heavy 2
light 2: B8 light 2 with N31I, Y99V, T103G, V107L
notes: FAB-A: CD3B891 (CD3B376 - K477); FAB-B: PSMB896

The binders below were run against T1, Human CD3 epsilon (CD3ε), on primary human pan T cells (human, UniProt P07766 23-207) (assay: cell-based or functional assay).
T1 sequence (P07766 23-207 limits assumed): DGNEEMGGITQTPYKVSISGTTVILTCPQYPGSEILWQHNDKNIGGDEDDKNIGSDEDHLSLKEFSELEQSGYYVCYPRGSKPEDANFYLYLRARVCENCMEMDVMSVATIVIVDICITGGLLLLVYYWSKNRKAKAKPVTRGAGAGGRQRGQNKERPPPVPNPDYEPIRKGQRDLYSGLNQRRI

Row | Binder | H929 Killing EC50 [nM]
1 | B1 | 0.069
2 | B2 | 0.0354
3 | B3 | 0.806
4 | B4 | 0.182

Biological target: T1, Human CD3 epsilon (CD3ε), on primary …
Assay: cell-based or functional assay
Remark: another data set of the same source

Row | Binder | EC50, Cytotoxicity [nM]
5 | B1 | 0.069
6 | B2 | 0.0354
7 | B3 | 0.806
8 | B4 | 0.182

The binders below were run against T2, human PSMA on prostate cancer cell lines (22RV1, C4-2B) (human, UniProt Q04609 1-750) (assay: flow cytometry on 22RV1 cells).
T2 construct: also called PSMA-expressing cell lines
Protocol: (§1) 22RV1 and C4-2B cells were plated at 50,000 cells per well in 50 μl of assay medium (RPMI, 10% HI FBS) in V bottom plates. Serial dilutions of antibodies were prepared in assay medium with 50 μl of antibody dilutions added to the plates containing cells. The plates were incubated for 60 min at 37° C. at which time 100 μl of staining buffer (Becton Dickinson Cat #554657) was added to all wells of each plate. The plates were centrifuged at 300×G for 5 minutes and the medium was removed from the wells. 200 μl of staining buffer was added to all wells of each plate. The plates were centrifuged at 300× G for 5 minutes and the medium was removed from the wells. 50 μl of 2 μg/ml AlexaFluor647-labeled goat anti-human Fc was added to all wells of the plates and the plates were incubated for 30 minutes at 4° C. 150 μl of staining buffer was added to all wells of each plate. The plates were centrifuged at 300× G for 5 minutes and the medium was removed from the wells.

T2 sequence (Q04609 whole entry): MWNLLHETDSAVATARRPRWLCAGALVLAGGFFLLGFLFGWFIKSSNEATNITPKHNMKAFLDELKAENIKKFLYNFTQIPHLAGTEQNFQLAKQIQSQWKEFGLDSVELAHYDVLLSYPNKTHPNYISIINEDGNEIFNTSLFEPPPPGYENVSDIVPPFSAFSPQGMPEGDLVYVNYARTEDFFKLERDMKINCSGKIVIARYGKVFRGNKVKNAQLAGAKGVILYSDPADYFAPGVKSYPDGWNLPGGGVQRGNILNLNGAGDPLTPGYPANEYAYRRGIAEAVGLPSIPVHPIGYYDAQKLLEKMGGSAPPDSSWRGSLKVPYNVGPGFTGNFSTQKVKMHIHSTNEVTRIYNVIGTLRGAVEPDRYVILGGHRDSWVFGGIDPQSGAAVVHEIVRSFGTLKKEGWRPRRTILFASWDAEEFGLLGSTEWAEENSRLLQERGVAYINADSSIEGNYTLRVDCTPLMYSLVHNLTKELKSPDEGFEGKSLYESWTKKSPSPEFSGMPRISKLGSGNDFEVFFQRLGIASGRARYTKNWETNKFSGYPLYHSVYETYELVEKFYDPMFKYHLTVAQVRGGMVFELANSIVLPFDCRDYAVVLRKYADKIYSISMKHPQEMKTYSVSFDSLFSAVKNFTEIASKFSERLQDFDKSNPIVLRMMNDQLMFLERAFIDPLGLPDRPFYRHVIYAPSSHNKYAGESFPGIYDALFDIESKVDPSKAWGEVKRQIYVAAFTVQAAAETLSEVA

Row | EC50 [nM] | Binder
9 | 60 | B5
10 | 3.42 | B6
11 | 60 | B7
12 | 24.9 | B8
13 | 54 | B9
14 | 60 | B10
15 | 34.7 | B11
16 | 4.03 | B12

What follows are binders tested against T2, human PSMA on prostate cancer cell … (assay: flow cytometry on C4-2B cells).
Protocol: as §1

Row | EC50 [nM] | Binder
17 | 60 | B5
18 | 4.56 | B6
19 | 60 | B7
20 | 23.3 | B8
21 | 36.8 | B9
22 | 60 | B10
23 | 44.1 | B11
24 | 6.44 | B12

Each binder was assayed against T3, recombinant human PSMA (human, UniProt Q04609 44-750) (assay: SPR (Biacore 8K), antibody captured on anti-Fc, PSMA in solution).
T3 construct: also called hu PSMA; prostate-specific membrane antigen
Protocol: The binding affinity of anti-PSMA to the recombinant human, cynomolgus or mouse PSMA was determined by surface plasmon resonance (SPR) using a Biacore 8K instrument\. […] The association and dissociation were monitored for 3 and 15 minutes, respectively, using a flow rate of 50 μL/min. Raw binding data was referenced by subtracting the analyte binding signals from blanks and analyzed using a 1:1 Langmuir binding model using the Biacore Insight evaluation software to obtain the kinetics which were used to calculate the binding affinity. The anti-PSMA were captured using an anti-human Fc antibody and the antigens were injected in solution.

T3 sequence (Q04609 44-750 limits assumed): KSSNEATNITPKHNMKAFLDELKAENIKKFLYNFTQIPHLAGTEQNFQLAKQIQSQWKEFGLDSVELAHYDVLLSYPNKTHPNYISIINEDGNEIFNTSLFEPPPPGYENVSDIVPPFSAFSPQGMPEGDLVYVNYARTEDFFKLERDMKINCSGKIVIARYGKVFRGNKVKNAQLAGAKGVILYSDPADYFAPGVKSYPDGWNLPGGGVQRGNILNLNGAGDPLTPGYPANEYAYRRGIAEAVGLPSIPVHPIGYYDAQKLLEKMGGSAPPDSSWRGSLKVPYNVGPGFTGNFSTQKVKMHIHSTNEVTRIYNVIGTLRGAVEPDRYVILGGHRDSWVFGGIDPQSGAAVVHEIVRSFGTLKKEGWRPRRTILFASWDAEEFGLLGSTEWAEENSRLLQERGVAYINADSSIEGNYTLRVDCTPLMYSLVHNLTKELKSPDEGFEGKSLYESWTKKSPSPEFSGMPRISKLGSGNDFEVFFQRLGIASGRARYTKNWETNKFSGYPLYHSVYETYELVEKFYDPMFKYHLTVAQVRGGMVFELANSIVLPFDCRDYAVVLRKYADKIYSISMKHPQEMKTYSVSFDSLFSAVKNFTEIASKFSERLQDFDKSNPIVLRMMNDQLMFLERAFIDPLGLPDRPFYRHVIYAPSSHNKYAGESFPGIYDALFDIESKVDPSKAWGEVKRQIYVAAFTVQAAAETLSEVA

Row | Kd [nM] | Binder
25 | ≤ 0.24 | B6
26 | 1.89 | B7
27 | 0.823 | B8
28 | 0.174 | B9
29 | 1.35 | B10
30 | 0.41 | B11
31 | ≤ 0.0864 | B12

The binders below were run against T1, Human CD3 epsilon (CD3ε), on primary … (assay: flow cytometry on human T cells, anti-human IgG Fc A647 detection).
Procedure, shortened: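 Cryopreserved primary human pan T cells (50,000/well) incubated 1 hr at 37 °C with serially diluted bispecific antibodies; bound antibody detected with A647 anti-human IgG Fc (2 ug/mL, 30 min on ice). Read by iQue flow cytometry, gated on singlets and SYTOX green-negative live cells; secondary-alone wells as background.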

Row | EC50 [nM] | Binder
32 | 65 | B1
33 | 42.9 | B2
34 | 300 | B3
35 | 177 | B4
